Test results: patent publication US20240279350A1 (Sanofi, published 2024)
Positions count from the first letter of the chain named. Names may count otherwise.

B1: mAb1 (Y32K/S77A) (antibody, human IgG2, kappa)
heavy: QVQLVQSGAEVKKPGASVKVSCKASGYTFTGKYMHWVRQAPGQGLEWMGWINPDSGGTNYAQKFQGRVTMTRDTSIATAYMELNRLRSDDTAVYYCARDQPLGYCTNGVCSYFDYWGQGTLVTVSSASTKGPSVFPLAPCSRSTSESTAALGCLVKDYFPEPVTVSWNSGALTSGVHTFPAVLQSSGLYSLSSVVTVPSSNFGTQTYTCNVDHKPSNTKVDKTVERKCCVECPPCPAPPVAGPSVFLFPPKPKDTLMISRTPEVTCVVVDVSHEDPEVQFNWYVDGVEVHNAKTKPREEQFNSTFRVVSVLTVVHQDWLNGKEYKCKVSNKGLPAPIEKTISKTKGQPREPQVYTLPPSREEMTKNQVSLTCLVKGFYPSDIAVEWESNGQPENNYKTTPPMLDSDGSFFLYSKLTVDKSRWQQGNVFSCSVMHEALHNHYTQKSLSLSPGK
light: DIQMTQSPSSVSASVGDRVTITCRASQGIYSWLAWYQQKPGKAPNLLIYTASTLQSGVPSRFSGSGSGTDFTLTISSLQPEDFATYYCQQANIFPLTFGGGTKVEIKRTVAAPSVFIFPPSDEQLKSGTASVVCLLNNFYPREAKVQWKVDNALQSGNSQESVTEQDSKDSTYSLSSTLTLSKADYEKHKVYACEVTHQGLSSPVTKSFNRGEC
notes: Mutant of AbC1 with the same constant regions (IgG2); also called mAb1 double mutant; mAb1 (without masking moiety)
B2: mAb2 (Y32K/S77P) (antibody, human IgG2, kappa, V domains shown)
VH: QVQLVQSGAEVKKPGASVKVSCKASGYTFTGKYMHWVRQAPGQGLEWMGWINPDSGGTNYAQKFQGRVTMTRDTSIPTAYMELNRLRSDDTAVYYCARDQPLGYCTNGVCSYFDYWGQGTLVTVSS
VL: DIQMTQSPSSVSASVGDRVTITCRASQGIYSWLAWYQQKPGKAPNLLIYTASTLQSGVPSRFSGSGSGTDFTLTISSLQPEDFATYYCQQANIFPLTFGGGTKVEIKR
notes: Mutant of AbC1 with the same constant regions (IgG2)
B3: mAb4 (Y32R) (antibody, human IgG2, kappa, V domains shown)
VH: B2 VH with K32R, P77S
VL: B2 VL
notes: as for B2
B4: mAb3 (Y32K) (antibody, human IgG2, kappa, V domains shown)
VH: B2 VH with P77S
VL: B2 VL
notes: as for B2
B5: AbC1 (antibody, human IgG2, kappa, V domains shown)
VH: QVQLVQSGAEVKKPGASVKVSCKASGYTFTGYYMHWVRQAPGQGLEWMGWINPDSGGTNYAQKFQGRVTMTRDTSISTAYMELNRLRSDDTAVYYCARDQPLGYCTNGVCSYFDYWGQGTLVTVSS
VL: B2 VL
notes: Human IgG2; also called parental antibody; parental AbC1 antibody
B6: MC4 (masked mAb1 comprising MM2 and CL2) (antibody, human IgG2, kappa)
heavy: B1 heavy
light: EVGSYYVCPVRFQYFCEESGRSAGGGGPLGLAGSGGSDIQMTQSPSSVSASVGDRVTITCRASQGIYSWLAWYQQKPGKAPNLLIYTASTLQSGVPSRFSGSGSGTDFTLTISSLQPEDFATYYCQQANIFPLTFGGGTKVEIKRTVAAPSVFIFPPSDEQLKSGTASVVCLLNNFYPREAKVQWKVDNALQSGNSQESVTEQDSKDSTYSLSSTLTLSKADYEKHKVYACEVTHQGLSSPVTKSFNRGEC
notes: Conditionally-active (masked) antibody

Tests used:
human CD40 on cells [1] = molecular target: T1, human CD40 on cells (human, UniProt P25942 21-277); assay: cell-based or functional assay
[2] = molecular target: rhesus CD40 on HEK293H reporter cells (rhesus, UniProt F6SNI1 21-278); assay: cell-based or functional assay
human CD40 on cells [3] = molecular target: T1, human CD40 on cells; assay: cell-based or functional assay; remark: listed apart in the source
human CD40 on cells [4] = molecular target: T1, human CD40 on cells; assay: cell-based or functional assay; remark: listed apart in the source
human CD40 on cells [5] = molecular target: T1, human CD40 on cells; assay: cell-based or functional assay; remark: listed apart in the source
human CD40 on cells [6] = molecular target: T1, human CD40 on cells; assay: cell-based or functional assay; remark: listed apart in the source
human CD40 on cells [7] = molecular target: T1, human CD40 on cells; assay: flow cytometry on U-2 OS/NFκB cells
Method: (§1) Briefly, cultured U-2 OS/NFκB cells were seeded in 96-well plates at 1.0×10⁵ cells/well and incubated with serially-diluted test antibodies for 60 minutes at 4° C. in 2% FBS/dPBS buffer. The cells were then washed twice with dPBS and further incubated with secondary allophycocyanin (APC)-conjugated AffiniPure F(ab′)₂ fragment donkey anti-human IgG (H+L) antibody (Jackson ImmunoResearch, Ref. 709-136-149) (1:500) for 30 minutes at 4° C. Finally, the cells were washed twice with dPBS and suspended in FACS buffer for flow cytometry analysis. MFI values vs concentrations were analyzed by FlowJo and data were further fitted with four-parameter non-linear regression to get EC₅₀ values by GraphPad Prism software.

human CD40 on cells [8] = molecular target: T1, human CD40 on cells; assay: flow cytometry on Raji cells; EC50 relative to mAb1
Method: as §1, with “Raji” for “cultured U-2 OS/NFκB”

human CD40 on cells [9] = molecular target: T1, human CD40 on cells; assay: flow cytometry on U-2 OS/NFκB cells; EC50 relative to mAb1
Method: as §1

human CD40 on cells [10] = molecular target: T1, human CD40 on cells; assay: flow cytometry on Raji cells; binding to Raji cells, flow cytometry
Method: as §1, with “Raji” for “cultured U-2 OS/NFκB”

recombinant human CD40 = molecular target: T2, recombinant human CD40 (human, UniProt P25942 21-193); assay: SPR (Biacore 8K+), antibody captured on protein A/G, recombinant hCD40 as analyte, 1:1 model
T2 construct: Soluble analyte in SPR; also called Recombinant hCD40; hCD40
Method: Protein A/G was immobilized to the surface of a CM5 series S chip using amine chemistry. Test compounds were then captured to the surface between 120 RU and 170 RU. Recombinant hCD40 was diluted 2-fold from 300 nM to 2.34 nM in HBS-EP+buffer. […] Glycine (10 mM) pH 1.5 was used to regenerate the chip surface. The binding affinity (KD) was determine using a 1:1-binding model by a global fit of all the concentrations.

human CD40 on cells [11] = molecular target: T1, human CD40 on cells; assay: flow cytometry on human primary naive B-cells, 1 h at 4 °C, AF488-conjugated secondary antibody (MFI)
Method: (§2) Naive B-cell were plated at a density of […] cells per well in 96-well plates and incubated with CD40 agonists, hexameric ligand and anti-CD40 antibodies, for 1 hour at 4° C.

[12] = molecular target: T3, cynomolgus CD40 on HEK293 cells (cynomolgus, UniProt G7PG38 21-278); assay: flow cytometry on cynomolgus CD40-expressing HEK293 cells, 1 h at 4 °C, AF488-conjugated secondary antibody (MFI)
T3 construct: whole, on cells; also called cyno CD40; cynoCD40-expressing HEK293 cells
Method: Cyno CD40-expressing HEK293 cells were plated at a density of 50×10³ cells per well in 96-well plates and incubated with serially diluted concentrations of CD40 agonists, hexameric ligand and anti-CD40 antibodies, for 1 hour at 4° C. Cells were then harvested and incubated with AF488-conjugated secondary antibody before flow cytometry analysis using a Fortessa X20.
Data from the flow cytometer was analyzed using FlowJo (V10.8.1), then the binding curves, the Eₘₐₓ, and EC₅₀ values were plotted using GraphPad Prism (V9.1.2).

human CD40 on cells [13] = molecular target: T1, human CD40 on cells; assay: flow cytometry on U-2 OS/NFκB cells (further experiment), APC-conjugated anti-human IgG secondary antibody (median fluorescence intensity)
Method: as §1

human CD40 on cells [14] = molecular target: T1, human CD40 on cells; assay: flow cytometry on human primary naive B-cells, 1 h at 4 °C, AF488-conjugated secondary antibody (MFI); remark: listed apart in the source
Method: as §2

human CD40 on cells [15] = molecular target: T1, human CD40 on cells; assay: flow cytometry on Raji cells
Method: as §1, with “Raji” for “cultured U-2 OS/NFκB”

T1 sequence (P25942 21-277 limits assumed): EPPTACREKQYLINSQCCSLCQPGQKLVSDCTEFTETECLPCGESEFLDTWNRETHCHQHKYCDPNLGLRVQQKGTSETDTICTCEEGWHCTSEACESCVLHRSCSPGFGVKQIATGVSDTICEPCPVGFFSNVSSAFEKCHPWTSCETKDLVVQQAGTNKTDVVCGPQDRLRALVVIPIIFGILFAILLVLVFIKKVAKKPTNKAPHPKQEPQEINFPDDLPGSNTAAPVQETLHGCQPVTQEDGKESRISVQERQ
T2 sequence (P25942 21-193 limits assumed): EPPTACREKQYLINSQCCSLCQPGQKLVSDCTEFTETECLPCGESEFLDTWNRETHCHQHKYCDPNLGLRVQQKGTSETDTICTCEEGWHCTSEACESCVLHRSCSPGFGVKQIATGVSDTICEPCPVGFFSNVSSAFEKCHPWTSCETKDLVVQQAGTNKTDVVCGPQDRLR

| Binder | EC50, NFkB-luciferase reporter assay, human NFkB-Luc2P/U-2 OS cells (human CD40 on cells [1]) [nM] | Top, NFkB-luciferase reporter assay, human NFkB-Luc2P/U-2 OS cells (human CD40 on cells [1]) [nM] | EC50, luciferase reporter assay, HEK293H rhesus CD40 reporter cells [2] [nM] | Top, luciferase reporter assay, HEK293H rhesus CD40 reporter cells [2] [nM] | EC50, luciferase reporter assay in U-2 OS/NFκB cells (human CD40 on cells [3]) [nM] | Relative masking efficacy, luciferase reporter assay in U-2 OS/NFκB cells (human CD40 on cells [3]) [fold] | EC50, CD86 expression, primary human B-cell activation assay (human CD40 on cells [4]) [nM] | Relative masking efficacy, CD86 expression, primary human B-cell activation assay (human CD40 on cells [4]) [fold] | EC50, CD83 expression, B-cells of hCD40 KI mice (human CD40 on cells [5]) [nM] | EC50, CD86 expression, B-cells of hCD40 KI mice (human CD40 on cells [5]) [nM] | Relative masking efficacy, CD83 expression, B-cells of hCD40 KI mice (human CD40 on cells [5]) [fold] | Relative masking efficacy, CD86 expression, B-cells of hCD40 KI mice (human CD40 on cells [5]) [fold] | EC50, CD83 expression, MoDC maturation assay (human CD40 on cells [6]) [nM] | EC50, IL-8 release, MoDC maturation assay (human CD40 on cells [6]) [nM] | EC50 (human CD40 on cells [7]) [nM] | Kd (recombinant human CD40) [nM] | koff (recombinant human CD40) [s⁻¹] | kon (recombinant human CD40) [M⁻¹ s⁻¹] | EC50 (read off the curve) (human CD40 on cells [11]) [nM] | EC50 (read off the curve) [12] [nM] | further results |
| --- | --- | --- | --- | --- | --- | --- | --- | --- | --- | --- | --- | --- | --- | --- | --- | --- | --- | --- | --- | --- | --- |
| B1 | 0.52 | 53.6 | 0.49 | 3.91 | 0.238 | 1 | 0.175 | 1 | 0.051 | 0.031 | 1 | 1 | 0.49 | 0.21 | 1.5 | 65 | 0.0034 | 52000 | ~2 | ~2 | Relative masking efficacy (human CD40 on cells [8]): 1 fold; Relative masking efficacy (human CD40 on cells [9]): 1 fold; EC50 (human CD40 on cells [10]): 1.34 nM; EC50 (read off the curve) (human CD40 on cells [13]): ~2 nM |
| B2 | 0.54 | 45.2 | – | – | – | – | – | – | – | – | – | – | – | – | – | – | – | – | ~2 | – | – |
| B3 | – | – | – | – | – | – | – | – | – | – | – | – | – | – | – | – | – | – | – | – | binding result (human CD40 on cells [14]): binds |
| B4 | 0.44 | 48.9 | 0.59 | 3.54 | – | – | – | – | – | – | – | – | – | – | – | 91 | 0.0041 | 45000 | – | ~2 | EC50 (read off the curve) (human CD40 on cells [14]): ~5 nM |
| B5 | 1.43 | 16.2 | 0.09 | 1.91 | – | – | – | – | 0.034 | 0.011 | – | – | 1.02 | 1.92 | – | 18 | 0.0019 | 110000 | ~1 | ~1 | EC50 (read off the curve) (human CD40 on cells [14]): ~4 nM; EC50 (read off the curve) (human CD40 on cells [13]): ~2 nM |
| B6 | – | – | – | – | 45.8 | 193 | 14.7 | 84 | 1.24 | 1.05 | 24.3 | 33.8 | 17.2 | 12.2 | 176 | – | – | – | – | – | EC50 (human CD40 on cells [15]): 143 nM; Relative masking efficacy (human CD40 on cells [8]): 107 fold; Relative masking efficacy (human CD40 on cells [9]): 118 fold |
